Laboratory results taken from patent publication US20250326865A1, “C-MET PROTEIN-BINDING PEPTIDE COMPLEX” (PeptiDream Inc., priority 2021, published 2025).
Starred links: 1 amine or outer side, 2 acyl side, 3 side chain; linkers in the order of their positions; H or OH if unused. Positions of bridges follow the written chain, without caps; N, C: chain ends. Non-standard residues stand in square brackets, D forms with d. Chains are numbered I, II in the order given. No end group written: not given here. CO(CH2)2(OCH2CH2)17CO = O=C(CCOCCOCCOCCOCCOCCOCCOCCOCCOCCOCCOCCOCCOCCOCCOCCOCCOCCC(=O)[*:2])[*:1]; CO(CH2CH2O)9CH2CH2CO = O=C(CCOCCOCCOCCOCCOCCOCCOCCOCCOCCC(=O)[*:2])[*:1]; PEG12 = NCCOCCOCCOCCOCCOCCOCCOCCOCCOCCOCCOCCOCCC(=O)O; NMeF = CN[C@@H](Cc1ccccc1)C(=O)O; Ahp(2) = CCCCC[C@H](N)C(=O)O; hLys = NCCCCC[C@H](N)C(=O)O; NMeC = CN[C@@H](CS)C(=O)O

B1: Peptide complex No. 29 in Table 4 (peptide SEQ ID NO: 24, GFs_c-Met-00014301p; linker SEQ ID NO: 38) (peptide)
peptide: {CH2CO}-[NMeF]EAVS[NMeF]DPD[Ahp(2)]PRWS[NMeC]
chain: GK[CO(CH2)2(OCH2CH2)17CO]KG
modifications: thioether I:N-I:15 (inferred); also: homodimer of two cyclic peptides joined by linker G-K-cPEG17c-K-G, peptide C-terminus on linker
B2: GFs c-Met-0012-PEG12 dimer (peptide SEQ ID NO: 2, GFs_c-Met_0012p; linker SEQ ID NO: 35) (peptide)
peptide: {CH2CO}-[NMeF]VYVS[NMeF]DDD[Ahp(2)]PRWS[NMeC]
chain: [PEG12]-Lys-[PEG12]
modifications: thioether I:N-I:15 (inferred); also: homodimer: two cyclic peptides joined by linker PEG12c-K-PEG12c, peptide C-terminus on linker
B3: Peptide complex No. 24 in Table 4 (peptide SEQ ID NO: 9, GFs_c-Met_0012_4p; linker SEQ ID NO: 36) (peptide)
peptide: {CH2CO}-[NMeF]VAVS[NMeF]DDD[Ahp(2)]PRWS[NMeC]
chain: GK[CO(CH2CH2O)9CH2CH2CO]KG
modifications: thioether I:N-I:15 (inferred); also: homodimer of two cyclic peptides joined by linker G-K-cPEG9c-K-G, peptide C-terminus on linker
B4: Peptide complex No. 32 in Table 4 (peptide SEQ ID NO: 25, GFs_c-Met-00014296p; linker SEQ ID NO: 36) (peptide)
peptide: {CH2CO}-[NMeF]QAVS[NMeF]DSD[Ahp(2)]PRWA[NMeC]
chain: GK[CO(CH2CH2O)9CH2CH2CO]KG
modifications: thioether I:N-I:15 (inferred); also: homodimer of two cyclic peptides joined by linker G-K-cPEG9c-K-G, peptide C-terminus on linker
B5: Peptide complex No. 18 in Table 4 (peptide SEQ ID NO: 6, GFs_c-Met_0012_1p; linker SEQ ID NO: 35) (peptide)
peptide: {CH2CO}-[NMeF]TYVS[NMeF]DDD[Ahp(2)]PRWS[NMeC]
chain: [PEG12]-Lys-[PEG12]
modifications: thioether I:N-I:15 (inferred); also: homodimer: two cyclic peptides joined by linker PEG12c-K-PEG12c, peptide C-terminus on linker
B6: Peptide complex No. 38 in Table 4 (peptide SEQ ID NO: 28, GFs_c-Met-00014303p; linker SEQ ID NO: 36) (peptide)
peptide: {CH2CO}-[NMeF]TRVS[NMeF]DSD[Ahp(2)]PRWS[NMeC]
chain: GK[CO(CH2CH2O)9CH2CH2CO]KG
modifications: thioether I:N-I:15 (inferred); also: homodimer of two cyclic peptides joined by linker G-K-cPEG9c-K-G, peptide C-terminus on linker
B7: Peptide complex No. 39 in Table 4 (peptide SEQ ID NO: 29, GFs_c-Met-00014306p; linker SEQ ID NO: 38) (peptide)
peptide: {CH2CO}-[NMeF]TAVSLDSD[Ahp(2)]PRWS[NMeC]
chain: GK[CO(CH2)2(OCH2CH2)17CO]KG
modifications: thioether I:N-I:15 (inferred); also: homodimer of two cyclic peptides joined by linker G-K-cPEG17c-K-G, peptide C-terminus on linker
B8: Peptide complex No. 19 in Table 4 (peptide SEQ ID NO: 9, GFs_c-Met_0012_4p; linker SEQ ID NO: 35) (peptide)
peptide: {CH2CO}-[NMeF]VAVS[NMeF]DDD[Ahp(2)]PRWS[NMeC]
chain: [PEG12]-Lys-[PEG12]
modifications: thioether I:N-I:15 (inferred); also: homodimer: two cyclic peptides joined by linker PEG12c-K-PEG12c, peptide C-terminus on linker
B9: Peptide complex No. 26 in Table 4 (peptide SEQ ID NO: 22, GFs_c-Met-00014295p; linker SEQ ID NO: 36) (peptide)
peptide: {CH2CO}-[NMeF]EAVS[NMeF]DSD[Ahp(2)]PRWA[NMeC]
chain: GK[CO(CH2CH2O)9CH2CH2CO]KG
modifications: thioether I:N-I:15 (inferred); also: homodimer of two cyclic peptides joined by linker G-K-cPEG9c-K-G, peptide C-terminus on linker
B10: Peptide complex No. 30 in Table 4 (peptide SEQ ID NO: 24, GFs_c-Met-00014301p; linker SEQ ID NO: 36) (peptide)
peptide: {CH2CO}-[NMeF]EAVS[NMeF]DPD[Ahp(2)]PRWS[NMeC]
chain: GK[CO(CH2CH2O)9CH2CH2CO]KG
modifications: thioether I:N-I:15 (inferred); also: homodimer of two cyclic peptides joined by linker G-K-cPEG9c-K-G, peptide C-terminus on linker
B11: Peptide complex No. 25 in Table 4 (peptide SEQ ID NO: 22, GFs_c-Met-00014295p; linker SEQ ID NO: 38) (peptide)
peptide: {CH2CO}-[NMeF]EAVS[NMeF]DSD[Ahp(2)]PRWA[NMeC]
chain: GK[CO(CH2)2(OCH2CH2)17CO]KG
modifications: thioether I:N-I:15 (inferred); also: homodimer of two cyclic peptides joined by linker G-K-cPEG17c-K-G, peptide C-terminus on linker
B12: Peptide complex No. 37 in Table 4 (peptide SEQ ID NO: 28, GFs_c-Met-00014303p; linker SEQ ID NO: 38) (peptide)
peptide: {CH2CO}-[NMeF]TRVS[NMeF]DSD[Ahp(2)]PRWS[NMeC]
chain: GK[CO(CH2)2(OCH2CH2)17CO]KG
modifications: thioether I:N-I:15 (inferred); also: homodimer of two cyclic peptides joined by linker G-K-cPEG17c-K-G, peptide C-terminus on linker
B13: Peptide complex No. 28 in Table 4 (peptide SEQ ID NO: 23, GFs_c-Met-00014298p; linker SEQ ID NO: 36) (peptide)
peptide: {CH2CO}-[NMeF]EAVS[NMeF]DPD[Ahp(2)]PRWA[NMeC]
chain: GK[CO(CH2CH2O)9CH2CH2CO]KG
modifications: thioether I:N-I:15 (inferred); also: homodimer of two cyclic peptides joined by linker G-K-cPEG9c-K-G, peptide C-terminus on linker
B14: Peptide complex No. 22 in Table 4 (peptide SEQ ID NO: 17, GFs_c-Met_0012_12p; linker SEQ ID NO: 35) (peptide)
peptide: {CH2CO}-[NMeF]VYVS[NMeF]DDD[Ahp(2)]PRWA[NMeC]
chain: [PEG12]-Lys-[PEG12]
modifications: thioether I:N-I:15 (inferred); also: homodimer: two cyclic peptides joined by linker PEG12c-K-PEG12c, peptide C-terminus on linker
B15: Peptide complex No. 31 in Table 4 (peptide SEQ ID NO: 25, GFs_c-Met-00014296p; linker SEQ ID NO: 38) (peptide)
peptide: {CH2CO}-[NMeF]QAVS[NMeF]DSD[Ahp(2)]PRWA[NMeC]
chain: GK[CO(CH2)2(OCH2CH2)17CO]KG
modifications: thioether I:N-I:15 (inferred); also: homodimer of two cyclic peptides joined by linker G-K-cPEG17c-K-G, peptide C-terminus on linker
B16: Peptide complex No. 34 in Table 4 (peptide SEQ ID NO: 26, GFs_c-Met-00014299p; linker SEQ ID NO: 36) (peptide)
peptide: {CH2CO}-[NMeF]QAVS[NMeF]DPD[Ahp(2)]PRWA[NMeC]
chain: GK[CO(CH2CH2O)9CH2CH2CO]KG
modifications: thioether I:N-I:15 (inferred); also: homodimer of two cyclic peptides joined by linker G-K-cPEG9c-K-G, peptide C-terminus on linker
B17: Peptide complex No. 20 in Table 4 (peptide SEQ ID NO: 11, GFs_c-Met_0012_6p; linker SEQ ID NO: 35) (peptide)
peptide: {CH2CO}-[NMeF]VYVS[NMeF]DPD[Ahp(2)]PRWS[NMeC]
chain: [PEG12]-Lys-[PEG12]
modifications: thioether I:N-I:15 (inferred); also: homodimer: two cyclic peptides joined by linker PEG12c-K-PEG12c, peptide C-terminus on linker
B18: Peptide complex No. 36 in Table 4 (peptide SEQ ID NO: 27, GFs_c-Met-00014302p; linker SEQ ID NO: 36) (peptide)
peptide: {CH2CO}-[NMeF]QAVS[NMeF]DPD[Ahp(2)]PRWS[NMeC]
chain: GK[CO(CH2CH2O)9CH2CH2CO]KG
modifications: thioether I:N-I:15 (inferred); also: homodimer of two cyclic peptides joined by linker G-K-cPEG9c-K-G, peptide C-terminus on linker
B19: Peptide complex No. 23 in Table 4 (peptide SEQ ID NO: 9, GFs_c-Met_0012_4p; linker SEQ ID NO: 38) (peptide)
peptide: {CH2CO}-[NMeF]VAVS[NMeF]DDD[Ahp(2)]PRWS[NMeC]
chain: GK[CO(CH2)2(OCH2CH2)17CO]KG
modifications: thioether I:N-I:15 (inferred); also: homodimer of two cyclic peptides joined by linker G-K-cPEG17c-K-G, peptide C-terminus on linker
B20: Peptide complex No. 21 in Table 4 (peptide SEQ ID NO: 13, GFs_c-Met_0012_8p; linker SEQ ID NO: 35) (peptide)
peptide: {CH2CO}-[NMeF]VYVS[NMeF]DDD[hLys]PRWS[NMeC]
chain: [PEG12]-Lys-[PEG12]
modifications: thioether I:N-I:15 (inferred); also: homodimer: two cyclic peptides joined by linker PEG12c-K-PEG12c, peptide C-terminus on linker
B21: Peptide complex No. 35 in Table 4 (peptide SEQ ID NO: 27, GFs_c-Met-00014302p; linker SEQ ID NO: 38) (peptide)
peptide: {CH2CO}-[NMeF]QAVS[NMeF]DPD[Ahp(2)]PRWS[NMeC]
chain: GK[CO(CH2)2(OCH2CH2)17CO]KG
modifications: thioether I:N-I:15 (inferred); also: homodimer of two cyclic peptides joined by linker G-K-cPEG17c-K-G, peptide C-terminus on linker
B22: Peptide complex No. 33 in Table 4 (peptide SEQ ID NO: 26, GFs_c-Met-00014299p; linker SEQ ID NO: 38) (peptide)
peptide: {CH2CO}-[NMeF]QAVS[NMeF]DPD[Ahp(2)]PRWA[NMeC]
chain: GK[CO(CH2)2(OCH2CH2)17CO]KG
modifications: thioether I:N-I:15 (inferred); also: homodimer of two cyclic peptides joined by linker G-K-cPEG17c-K-G, peptide C-terminus on linker
B23: Peptide complex No. 27 in Table 4 (peptide SEQ ID NO: 23, GFs_c-Met-00014298p; linker SEQ ID NO: 38) (peptide)
peptide: {CH2CO}-[NMeF]EAVS[NMeF]DPD[Ahp(2)]PRWA[NMeC]
chain: GK[CO(CH2)2(OCH2CH2)17CO]KG
modifications: thioether I:N-I:15 (inferred); also: homodimer of two cyclic peptides joined by linker G-K-cPEG17c-K-G, peptide C-terminus on linker

target: human c-Met protein (human, UniProt P08581 25-1390); assay: cell-based or functional assay
Sequence (P08581 25-1390): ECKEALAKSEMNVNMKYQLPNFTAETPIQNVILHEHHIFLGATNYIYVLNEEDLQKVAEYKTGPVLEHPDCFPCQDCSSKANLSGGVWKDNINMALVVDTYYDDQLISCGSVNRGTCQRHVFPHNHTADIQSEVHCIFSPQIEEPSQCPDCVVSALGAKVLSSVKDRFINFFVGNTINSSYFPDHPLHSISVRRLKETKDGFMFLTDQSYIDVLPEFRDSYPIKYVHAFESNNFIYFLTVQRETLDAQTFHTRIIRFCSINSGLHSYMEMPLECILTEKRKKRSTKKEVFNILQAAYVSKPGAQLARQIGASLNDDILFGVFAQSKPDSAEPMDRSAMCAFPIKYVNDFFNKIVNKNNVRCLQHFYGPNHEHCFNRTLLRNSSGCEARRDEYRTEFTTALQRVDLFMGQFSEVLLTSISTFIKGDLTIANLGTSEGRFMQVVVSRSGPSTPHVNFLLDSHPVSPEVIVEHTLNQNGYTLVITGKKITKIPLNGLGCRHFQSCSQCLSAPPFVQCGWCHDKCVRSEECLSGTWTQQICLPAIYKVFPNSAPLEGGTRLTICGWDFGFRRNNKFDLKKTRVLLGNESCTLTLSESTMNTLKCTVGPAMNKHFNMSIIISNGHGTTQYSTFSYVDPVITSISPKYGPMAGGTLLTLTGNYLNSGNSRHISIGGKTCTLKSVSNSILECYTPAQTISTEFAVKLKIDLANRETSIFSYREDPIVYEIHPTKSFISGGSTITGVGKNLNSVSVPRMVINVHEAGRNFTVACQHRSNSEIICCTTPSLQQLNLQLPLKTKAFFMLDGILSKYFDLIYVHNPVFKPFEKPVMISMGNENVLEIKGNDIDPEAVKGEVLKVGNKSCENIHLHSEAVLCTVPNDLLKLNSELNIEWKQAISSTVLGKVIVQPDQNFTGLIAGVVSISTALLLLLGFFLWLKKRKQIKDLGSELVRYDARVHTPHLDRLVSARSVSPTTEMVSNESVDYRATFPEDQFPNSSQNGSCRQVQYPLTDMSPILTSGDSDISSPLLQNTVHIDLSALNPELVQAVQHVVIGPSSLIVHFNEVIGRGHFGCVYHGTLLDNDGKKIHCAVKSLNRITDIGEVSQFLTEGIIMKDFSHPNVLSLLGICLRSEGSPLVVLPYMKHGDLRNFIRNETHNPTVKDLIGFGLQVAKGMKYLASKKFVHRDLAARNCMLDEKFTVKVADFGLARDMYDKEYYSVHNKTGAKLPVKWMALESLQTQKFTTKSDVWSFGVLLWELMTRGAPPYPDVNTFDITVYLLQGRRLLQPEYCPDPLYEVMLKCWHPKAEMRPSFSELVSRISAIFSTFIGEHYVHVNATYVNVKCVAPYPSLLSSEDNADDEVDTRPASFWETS

| C-Met Agonist Activity (C50; nM): phospho-c-Met AlphaLISA, A431 cells [nM] | Binder |
| --- | --- |
| 0.88 | B1 |
| 0.76 | B2 |
| 1.27 | B3 |
| 0.61 | B4 |
| 1.31 | B5 |
| 0.65 | B6 |
| 1.44 | B7 |
| 1.22 | B8 |
| 0.75 | B9 |
| 0.81 | B10 |
| 0.81 | B11 |
| 0.49 | B12 |
| 1.24 | B13 |
| 2.37 | B14 |
| 0.68 | B15 |
| 1.26 | B16 |
| 2.22 | B17 |
| 0.73 | B18 |
| 0.91 | B19 |
| 2.17 | B20 |
| 0.92 | B21 |
| 2.05 | B22 |
| 2.37 | B23 |
